In the supplement of paper PMC10567573:

B1: CASP6 (parent)
chain: TCADRDNLTRRFSDLGFEVKCFND

Variants of: B1
Assay: protein stability index of a GFP-peptide fusion (GPS, HEK-293T) (PSI 1-6); higher = more stable
Conditions: c terminus: a fixed tail appended
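Note: lentivirally expressed fusions sorted by FACS into six bins by GFP to DsRed ratio, PSI derived from sequencing read proportions per bin multiplied by bin number.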

Variant	protein stability index
TCADRDNLTRTFSDLGFEVKCFND	3.2
TCADRDNLTRWFSDLGFEVKCFND	1.62
TCADRDNLTRAFSDLGFEVKCFND	3.5
TCADRDNLTREFSDLGFEVKCFND	4.2
TCADRDNLTRGFSDLGFEVKCFND	3.36
TCADRDNLTRLFSDLGFEVKCFND	3.12
TCADRDNLTRYFSDLGFEVKCFND	2.35
TCADRDNLTRMFSDLGFEVKCFND	3.79
TCADRDNLTRSFSDLGFEVKCFND	3.57
TCADRDNLTRKFSDLGFEVKCFND	3.65
TCADRDNLTRVFSDLGFEVKCFND	2.76
TCADRDNLTRIFSDLGFEVKCFND	2.47
TCADRDNLTRNFSDLGFEVKCFND	3.76
TCADRDNLTRFFSDLGFEVKCFND	2.33
TCADRDNLTRQFSDLGFEVKCFND	3.5
TCADRDNLTRPFSDLGFEVKCFND	3.68
TCADRDNLTRDFSDLGFEVKCFND	4.12
TCADRDNLTRCFSDLGFEVKCFND	2.66
TCADRDNLTRHFSDLGFEVKCFND	3.5
TCADRDRLTRRFSDLGFEVKCFND	2.98
TCADRDCLTRRFSDLGFEVKCFND	3.13
TCADRDPLTRRFSDLGFEVKCFND	3.4
TCADRDTLTRRFSDLGFEVKCFND	3.52
TCADRDHLTRRFSDLGFEVKCFND	3.63

Variant	protein stability index
TCADRDLLTRRFSDLGFEVKCFND	2.98
TCADRDSLTRRFSDLGFEVKCFND	3.51
TCADRDELTRRFSDLGFEVKCFND	3.55
TCADRDFLTRRFSDLGFEVKCFND	2.78
TCADRDQLTRRFSDLGFEVKCFND	2.92
TCADRDYLTRRFSDLGFEVKCFND	2.72
TCADRDGLTRRFSDLGFEVKCFND	3.71
TCADRDMLTRRFSDLGFEVKCFND	3.35
TCADRDWLTRRFSDLGFEVKCFND	2.52
TCADRDKLTRRFSDLGFEVKCFND	3.06
TCADRDVLTRRFSDLGFEVKCFND	3.04
TCADRDDLTRRFSDLGFEVKCFND	3.41
TCADRDILTRRFSDLGFEVKCFND	3.22
TCADRDALTRRFSDLGFEVKCFND	2.89
TCALRDNLTRRFSDLGFEVKCFND	2.21
TCAPRDNLTRRFSDLGFEVKCFND	2.75
TCAVRDNLTRRFSDLGFEVKCFND	3.05
TCAQRDNLTRRFSDLGFEVKCFND	3.36
TCAWRDNLTRRFSDLGFEVKCFND	3.54
TCAIRDNLTRRFSDLGFEVKCFND	2.24
TCAHRDNLTRRFSDLGFEVKCFND	2.96
TCATRDNLTRRFSDLGFEVKCFND	2.64
TCASRDNLTRRFSDLGFEVKCFND	3.02
TCAKRDNLTRRFSDLGFEVKCFND	3.37

Variant	protein stability index
TCAYRDNLTRRFSDLGFEVKCFND	2.44
TCAFRDNLTRRFSDLGFEVKCFND	2.78
TCANRDNLTRRFSDLGFEVKCFND	3.17
TCAMRDNLTRRFSDLGFEVKCFND	2.08
TCARRDNLTRRFSDLGFEVKCFND	2.95
TCAGRDNLTRRFSDLGFEVKCFND	3.28
TCAERDNLTRRFSDLGFEVKCFND	3.74
TCADRDNLTPRFSDLGFEVKCFND	3.39
TCADRDNLTKRFSDLGFEVKCFND	3.75
TCADRDNLTHRFSDLGFEVKCFND	3.16
TCADRDNLTARFSDLGFEVKCFND	3.59
TCADRDNLTFRFSDLGFEVKCFND	2.98
TCADRDNLTGRFSDLGFEVKCFND	3.48
TCADRDNLTYRFSDLGFEVKCFND	2.65
TCADRDNLTDRFSDLGFEVKCFND	3.96
TCADRDNLTNRFSDLGFEVKCFND	3.56
TCADRDNLTLRFSDLGFEVKCFND	3.07
TCADRDNLTCRFSDLGFEVKCFND	2.59
TCADRDNLTVRFSDLGFEVKCFND	3.2
TCADRDNLTWRFSDLGFEVKCFND	2.17
TCADRDNLTTRFSDLGFEVKCFND	3.61
TCADRDNLTSRFSDLGFEVKCFND	3.29
TCADRDNLTMRFSDLGFEVKCFND	2.83
TCADRDNLTIRFSDLGFEVKCFND	2.48

Variant	protein stability index
TCADRDNLTERFSDLGFEVKCFND	3.83
TCADRDNLTQRFSDLGFEVKCFND	3.33
TCADRDNLKRRFSDLGFEVKCFND	3.12
TCADRDNLPRRFSDLGFEVKCFND	3.62
TCADRDNLARRFSDLGFEVKCFND	3.3
TCADRDNLNRRFSDLGFEVKCFND	2.83
TCADRDNLYRRFSDLGFEVKCFND	2.41
TCADRDNLDRRFSDLGFEVKCFND	3.51
TCADRDNLVRRFSDLGFEVKCFND	3.58
TCADRDNLWRRFSDLGFEVKCFND	2.34
TCADRDNLRRRFSDLGFEVKCFND	3.36
TCADRDNLFRRFSDLGFEVKCFND	1.94
TCADRDNLCRRFSDLGFEVKCFND	2.87
TCADRDNLSRRFSDLGFEVKCFND	3.25
TCADRDNLERRFSDLGFEVKCFND	3.75
TCADRDNLQRRFSDLGFEVKCFND	3.49
TCADRDNLLRRFSDLGFEVKCFND	3.12
TCADRDNLMRRFSDLGFEVKCFND	2.54
TCADRDNLGRRFSDLGFEVKCFND	3.47
TCADRDNLIRRFSDLGFEVKCFND	2.69
TCADRDNLHRRFSDLGFEVKCFND	3.03
TCADRQNLTRRFSDLGFEVKCFND	3.44
TCADRPNLTRRFSDLGFEVKCFND	3.68
TCADRGNLTRRFSDLGFEVKCFND	3.47

Variant	protein stability index
TCADRVNLTRRFSDLGFEVKCFND	2.38
TCADRHNLTRRFSDLGFEVKCFND	3.08
TCADRKNLTRRFSDLGFEVKCFND	2.75
TCADRCNLTRRFSDLGFEVKCFND	2.43
TCADRSNLTRRFSDLGFEVKCFND	3.01
TCADRMNLTRRFSDLGFEVKCFND	3.09
TCADRENLTRRFSDLGFEVKCFND	3.56
TCADRRNLTRRFSDLGFEVKCFND	3.16
TCADRLNLTRRFSDLGFEVKCFND	3.06
TCADRWNLTRRFSDLGFEVKCFND	2.09
TCADRYNLTRRFSDLGFEVKCFND	2.44
TCADRINLTRRFSDLGFEVKCFND	2.96
TCADRANLTRRFSDLGFEVKCFND	2.76
TCADRTNLTRRFSDLGFEVKCFND	3.2
TCADRNNLTRRFSDLGFEVKCFND	2.29
TCADRFNLTRRFSDLGFEVKCFND	2.51
TCADRDNETRRFSDLGFEVKCFND	4.42
TCADRDNWTRRFSDLGFEVKCFND	2.79
TCADRDNNTRRFSDLGFEVKCFND	2.38
TCADRDNCTRRFSDLGFEVKCFND	2.99
TCADRDNRTRRFSDLGFEVKCFND	4.07
TCADRDNATRRFSDLGFEVKCFND	3.38
TCADRDNDTRRFSDLGFEVKCFND	4.06
TCADRDNITRRFSDLGFEVKCFND	3.31

Variant	protein stability index
TCADRDNFTRRFSDLGFEVKCFND	2.45
TCADRDNVTRRFSDLGFEVKCFND	3.37
TCADRDNKTRRFSDLGFEVKCFND	3.6
TCADRDNHTRRFSDLGFEVKCFND	3.28
TCADRDNYTRRFSDLGFEVKCFND	2.91
TCADRDNGTRRFSDLGFEVKCFND	3.66
TCADRDNTTRRFSDLGFEVKCFND	3.49
TCADRDNSTRRFSDLGFEVKCFND	3.82
TCADRDNMTRRFSDLGFEVKCFND	3.03
TCADRDNPTRRFSDLGFEVKCFND	3.52
TCADRDNQTRRFSDLGFEVKCFND	4.08
TCADNDNLTRRFSDLGFEVKCFND	3.33
TCADCDNLTRRFSDLGFEVKCFND	2.65
TCADYDNLTRRFSDLGFEVKCFND	2.92
TCADSDNLTRRFSDLGFEVKCFND	3.8
TCADGDNLTRRFSDLGFEVKCFND	3.64
TCADVDNLTRRFSDLGFEVKCFND	3.5
TCADTDNLTRRFSDLGFEVKCFND	3.48
TCADQDNLTRRFSDLGFEVKCFND	3.44
TCADADNLTRRFSDLGFEVKCFND	4.37
TCADLDNLTRRFSDLGFEVKCFND	3.5
TCADWDNLTRRFSDLGFEVKCFND	2.62
TCADEDNLTRRFSDLGFEVKCFND	3.58
TCADFDNLTRRFSDLGFEVKCFND	2.43

Variant	protein stability index
TCADIDNLTRRFSDLGFEVKCFND	2.71
TCADPDNLTRRFSDLGFEVKCFND	3.98
TCADMDNLTRRFSDLGFEVKCFND	3.6
TCADKDNLTRRFSDLGFEVKCFND	3.77
TCADHDNLTRRFSDLGFEVKCFND	2.86
TCADDDNLTRRFSDLGFEVKCFND	4.21
TCADRDNLTRRKSDLGFEVKCFND	4.1
TCADRDNLTRRCSDLGFEVKCFND	3.08
TCADRDNLTRRTSDLGFEVKCFND	3.96
TCADRDNLTRRWSDLGFEVKCFND	3.1
TCADRDNLTRRISDLGFEVKCFND	2.98
TCADRDNLTRRRSDLGFEVKCFND	3.35
TCADRDNLTRRYSDLGFEVKCFND	3.45
TCADRDNLTRRVSDLGFEVKCFND	4.21
TCADRDNLTRRESDLGFEVKCFND	4.7
TCADRDNLTRRDSDLGFEVKCFND	4.23
TCADRDNLTRRPSDLGFEVKCFND	4.32
TCADRDNLTRRQSDLGFEVKCFND	3.97
TCADRDNLTRRGSDLGFEVKCFND	3.81
TCADRDNLTRRLSDLGFEVKCFND	3.33
TCADRDNLTRRMSDLGFEVKCFND	3.42
TCADRDNLTRRSSDLGFEVKCFND	4.08
TCADRDNLTRRNSDLGFEVKCFND	4.35
TCADRDNLTRRHSDLGFEVKCFND	4.07

Variant	protein stability index
TCADRDNLTRRASDLGFEVKCFND	4.07
TCADRDNLTRRFKDLGFEVKCFND	3.45
TCADRDNLTRRFMDLGFEVKCFND	2.71
TCADRDNLTRRFADLGFEVKCFND	3.46
TCADRDNLTRRFIDLGFEVKCFND	2.75
TCADRDNLTRRFRDLGFEVKCFND	2.98
TCADRDNLTRRFLDLGFEVKCFND	2.71
TCADRDNLTRRFTDLGFEVKCFND	2.58
TCADRDNLTRRFDDLGFEVKCFND	3.83
TCADRDNLTRRFNDLGFEVKCFND	3.44
TCADRDNLTRRFQDLGFEVKCFND	3.65
TCADRDNLTRRFWDLGFEVKCFND	2.36
TCADRDNLTRRFHDLGFEVKCFND	2.88
TCADRDNLTRRFGDLGFEVKCFND	3
TCADRDNLTRRFYDLGFEVKCFND	2.7
TCADRDNLTRRFVDLGFEVKCFND	2.32
TCADRDNLTRRFFDLGFEVKCFND	2.7
TCADRDNLTRRFPDLGFEVKCFND	2.86
TCADRDNLTRRFCDLGFEVKCFND	2.67
TCADRDNLTRRFEDLGFEVKCFND	3.84
